Blank lines part the entries; values can stand above or below the binder they belong to.
How the values were obtained:
[1] = molecular target: T1, His G3BP1 protein (affinity-purified) (UniProt Q13283 1-466); test: co-IP; in vitro binding assay with affinity-purified proteins: 4 ug His-SPOP with 0.125, 0.25 or 0.75 ug His G3BP1 in 1 ml pulldown buffer, 4 C, 60 min, then 0.56 ug Myc-DEK; IP with anti-SPOP and protein G agarose; wash 50 mM Tris pH 7.5, 200 mM NaCl; conditions: both partners purified
T1 construct: G3BP1, recombinant His-tagged protein

[2] = molecular target: T2, Myc-DEK protein (affinity-purified) (UniProt P35659 1-375); test: as above; conditions: both partners purified
T2 construct: DEK, recombinant Myc-tagged protein
T2 sequence (looked up): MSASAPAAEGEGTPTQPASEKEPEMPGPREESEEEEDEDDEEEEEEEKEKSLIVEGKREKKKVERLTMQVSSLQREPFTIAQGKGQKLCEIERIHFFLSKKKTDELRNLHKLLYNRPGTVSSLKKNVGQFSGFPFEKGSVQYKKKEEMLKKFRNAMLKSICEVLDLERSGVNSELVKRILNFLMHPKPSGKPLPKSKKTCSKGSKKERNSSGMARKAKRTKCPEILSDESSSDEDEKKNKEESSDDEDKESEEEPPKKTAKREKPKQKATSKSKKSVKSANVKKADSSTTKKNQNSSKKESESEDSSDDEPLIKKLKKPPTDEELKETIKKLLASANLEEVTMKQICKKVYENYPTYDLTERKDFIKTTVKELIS

[3] = molecular target: T3, Speckle-type POZ protein (SPOP), endogenous in 22Rv1 cells (human (endogenous in 22Rv1), UniProt O43791 1-374); test: proximity ligation; 22Rv1 cells transfected with FLAG-G3BP1 constructs; Duolink II kit, antibodies against FLAG-M2 and SPOP (endogenous); percentage of cells with signal; conditions: partners not purified
T3 construct: SPOP, endogenous protein of human 22Rv1 prostate cancer cells; also called endogenous SPOP; source: endogenous, 22Rv1 lysate or cells

binding result [1]: binds
binding result [2]: binds
B1: His-SPOP protein (affinity-purified) (natural protein, UniProt O43791 1-374, looked up)
chain: MSRVPSPPPPAEMSSGPVAESWCYTQIKVVKFSYMWTINNFSFCREEMGEVIKSSTFSSGANDKLKWCLRVNPKGLDEESKDYLSLYLLLVSCPKSEVRAKFKFSILNAKGEETKAMESQRAYRFVQGKDWGFKKFIRRDFLLDEANGLLPDDKLTLFCEVSVVQDSVNISGQNTMNMVKVPECRLADELGGLWENSRFTDCCLCVAGQEFQAHKAILAARSPVFSAMFEHEMEESKKNRVEINDVEPEVFKEMMCFIYTGKAPNLDKMADDLLAAADKYALERLKVMCEDALCSNLSVENAAEILILADLHSADQLKTQAVDFINYHASDVLETSGWKSMVVSHPHLVAEAYRSLASAQCPFLGPPRKRLKQS
notes: SPOP, recombinant His-tagged protein

percentage of cells with PLA positive signal [3]: 70%
B2: FLAG-G3BP1^RRM (22Rv1) (domain or fragment, UniProt Q13283 338-466, looked up)
chain: DSHQLFIGNLPHEVDKSELKDFFQSYGNVVELRINSGGKLPNFGFVVFDDSEPVQKVLSNRPIMFRGEVRLNVEEKKTRAAREGDRRDNRLRGPGGPRGGLGGGMRGPPRGGMVQKPGFGVGRGLAPRQ
notes: also called FLAG-RRM; G3BP1^RRM-RGG; source: 22Rv1, transfected, in cells or lysate
